Assay results: patent US20160264649A1

Legend:
Assay in all cases: cell-based or functional assay
[1] = target: HIV-1 92BR020 Env on pseudovirus (HIV-1)
[2] = target: HIV-1 92RW020 Env (HIV-1)
[3] = target: HIV-1 92TH021 Env (HIV-1)
[4] = target: HIV-1 92UG001 Env (HIV-1)
[5] = target: HIV-1 92UG024 Env (HIV-1)
[6] = target: HIV-1 93TH305 Env on pseudovirus (HIV-1)
[7] = target: HIV-1 93UG077 Env (HIV-1)
[8] = target: HIV-1 94UG103 Env (HIV-1)
[9] = target: HIV-1 APV-13 Env (HIV-1)
[10] = target: HIV-1 APV_6 Env on pseudovirus (HIV-1)
[11] = target: HIV-1 CAAN.A2 (Acute) Env on pseudovirus (HIV-1)
[12] = target: HIV-1 CMU02 Env (HIV-1)
[13] = target: HIV-1 IAVI-C3 Env (HIV-1)
[14] = target: HIV-1 JRCSF Env (HIV-1) (UniProt P20871)
[15] = target: HIV-1 JRCSF Env on pseudovirus (HIV-1) (UniProt P20871)
[16] = target: HIV-1 LAVI_C3 Env on pseudovirus (HIV-1)
[17] = target: HIV-1 MGRM-AE-006 Env (HIV-1)
[18] = target: HIV-1 MGRM-AE-008 Env (HIV-1)
[19] = target: HIV-1 MGRM-AG-008 Env (HIV-1)
[20] = target: HIV-1 MGRM-AG-009 Env (HIV-1)
[21] = target: HIV-1 MGRM-C-002 Env on pseudovirus (HIV-1)
[22] = target: HIV-1 MGRM-C-013 Env on pseudovirus (HIV-1)
[23] = target: HIV-1 MGRM-C-015 Env on pseudovirus (HIV-1)
[24] = target: HIV-1 MGRM-C-017 Env on pseudovirus (HIV-1)
[25] = target: HIV-1 MGRM-Chronic-B-003 Env on pseudovirus (HIV-1)
[26] = target: HIV-1 MGRM-Chronic-B-010 Env on pseudovirus (HIV-1)
[27] = target: HIV-1 MGRM-Chronic-B-017 Env on pseudovirus (HIV-1)
[28] = target: HIV-1 MGRM-Chronic-B-020 Env on pseudovirus (HIV-1)
[29] = target: HIV-1 MGRM-Chronic-B-024 Env on pseudovirus (HIV-1)
[30] = target: HIV-1 MGRM-D-001 Env (HIV-1)
[31] = target: HIV-1 MGRM-D-002 Env (HIV-1)
[32] = target: HIV-1 MGRM-D-003 Env (HIV-1)
[33] = target: HIV-1 MGRM-D-011 Env (HIV-1)
[34] = target: HIV-1 MGRM-D-013 Env (HIV-1)
[35] = target: HIV-1 MGRM-D-014 Env (HIV-1)
[36] = target: HIV-1 MGRM-D-018 Env (HIV-1)
[37] = target: HIV-1 MGRM-D-019 Env (HIV-1)
[38] = target: HIV-1 MGRM-D-028 Env (HIV-1)
[39] = target: HIV-1 MGRM-D-029 Env (HIV-1)
[40] = target: HIV-1 MGRM-F1-014 Env (HIV-1)
[41] = target: HIV-1 MGRM-F1-015 Env (HIV-1)
[42] = target: HIV-1 MGRM-F1-017 Env (HIV-1)
[43] = target: HIV-1 MGRM-F1-023 Env (HIV-1)
[44] = target: HIV-1 MGRM-G-001 Env (HIV-1)
[45] = target: HIV-1 MGRM-G-004 Env (HIV-1)
[46] = target: HIV-1 MGRM-G-019 Env (HIV-1)
[47] = target: HIV-1 MGRM-G-024 Env (HIV-1)
[48] = target: HIV-1 NL43 Env on pseudovirus (HIV-1)
[49] = target: HIV-1 TRO.11 (Acute) Env on pseudovirus (HIV-1)
[50] = target: HIV-1 VLGCB3 Env on pseudovirus (HIV-1)

Sequence of 1443_C16 (PG16) (TCN-116) (antibody) (VH): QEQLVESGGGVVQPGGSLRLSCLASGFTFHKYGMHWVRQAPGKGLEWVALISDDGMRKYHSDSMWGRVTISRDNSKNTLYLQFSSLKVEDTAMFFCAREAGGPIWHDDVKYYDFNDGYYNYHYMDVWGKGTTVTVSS
Sequence of 1443_C16 (PG16) (TCN-116) (antibody) (VL): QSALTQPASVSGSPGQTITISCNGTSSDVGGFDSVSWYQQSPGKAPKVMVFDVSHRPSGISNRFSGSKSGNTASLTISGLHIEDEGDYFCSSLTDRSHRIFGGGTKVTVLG

Question: How did the IC50 [1] turn out when 1443_C16 (PG16) (TCN-116) (antibody) was run?
Answer: Its IC50 is over 50 µg/mL.

Question: What about the IC50, TZM-bl pseudovirus neutralization [2] of the same substance?
Answer: Its IC50, TZM-bl pseudovirus neutralization is 0.09 µg/mL.

Question: And the neutralization IC50 [2]?
Answer: The neutralization IC50 was 4 ng/mL.

Question: And the neutralization IC90 [2]?
Answer: The neutralization IC90 was over 50 µg/mL.

Question: What about the IC50 (µg/ml), pseudovirus neutralization [3] of the same substance?
Answer: The IC50 (µg/ml), pseudovirus neutralization was 0.1 µg/mL.

Question: And the neutralization IC50 [3]?
Answer: Its neutralization IC50 is 0.127 µg/mL.

Question: What about the neutralization IC90 [3] of the same substance?
Answer: Its neutralization IC90 is 23.4 µg/mL.

Question: What about the IC50 (µg/ml), pseudovirus neutralization [4] of the same substance?
Answer: The IC50 (µg/ml), pseudovirus neutralization was over 50 µg/mL.

Question: And the IC50 (µg/ml), pseudovirus neutralization [5]?
Answer: Its IC50 (µg/ml), pseudovirus neutralization is 24 µg/mL.

Question: And the neutralization IC50 [5]?
Answer: Its neutralization IC50 is over 50 µg/mL.

Question: And the neutralization IC90 [5]?
Answer: The neutralization IC90 was over 50 µg/mL.

Question: And the IC50 [6]?
Answer: Its IC50 is 19.3 µg/mL.

Question: What about the neutralization IC50 [7] of the same substance?
Answer: Its neutralization IC50 is over 50 µg/mL.

Question: What about the neutralization IC90 [7] of the same substance?
Answer: The neutralization IC90 was over 50 µg/mL.

Question: What about the neutralization IC50 [8] of the same substance?
Answer: Its neutralization IC50 is 8 ng/mL.

Question: And the neutralization IC90 [8]?
Answer: The neutralization IC90 was 1.59 µg/mL.

Question: What about the neutralization IC50 [9] of the same substance?
Answer: Its neutralization IC50 is over 50 µg/mL.

Question: And the neutralization IC90 [9]?
Answer: The neutralization IC90 was over 50 µg/mL.

Question: And the IC50 [10]?
Answer: Its IC50 is 0.29 µg/mL.

Question: What about the IC50 [11] of the same substance?
Answer: The IC50 was 8.83 µg/mL.

Question: What about the IC50 (µg/ml), pseudovirus neutralization [12] of the same substance?
Answer: The IC50 (µg/ml), pseudovirus neutralization was 43.6 µg/mL.

Question: And the neutralization IC50 [12]?
Answer: The neutralization IC50 was over 50 µg/mL.

Question: And the neutralization IC90 [12]?
Answer: Its neutralization IC90 is over 50 µg/mL.

Question: What about the neutralization IC50 [13] of the same substance?
Answer: The neutralization IC50 was 14.8 µg/mL.

Question: What about the neutralization IC90 [13] of the same substance?
Answer: The neutralization IC90 was over 50 µg/mL.

Question: And the neutralization IC50 [14]?
Answer: The neutralization IC50 was under 2.5 ng/mL.

Question: And the neutralization IC90 [14]?
Answer: Its neutralization IC90 is 0.013 µg/mL.

Question: And the IC50 [15]?
Answer: The IC50 was 1 ng/mL.

Question: And the IC50 [16]?
Answer: The IC50 was 9.55 µg/mL.

Question: And the IC50 (µg/ml), pseudovirus neutralization [17]?
Answer: Its IC50 (µg/ml), pseudovirus neutralization is 0.03 µg/mL.

Question: What about the IC50 (µg/ml), pseudovirus neutralization [18] of the same substance?
Answer: Its IC50 (µg/ml), pseudovirus neutralization is 3.25 µg/mL.

Question: What about the IC50 (µg/ml), pseudovirus neutralization [19] of the same substance?
Answer: Its IC50 (µg/ml), pseudovirus neutralization is 0.002 µg/mL.

Question: What about the IC50 (µg/ml), pseudovirus neutralization [20] of the same substance?
Answer: Its IC50 (µg/ml), pseudovirus neutralization is over 50 µg/mL.

Question: And the IC50 [21]?
Answer: The IC50 was 28.3 µg/mL.

Question: And the IC50 [22]?
Answer: The IC50 was over 50 µg/mL.

Question: And the IC50 [23]?
Answer: The IC50 was 0.26 µg/mL.

Question: What about the IC50 [24] of the same substance?
Answer: The IC50 was 1.8 µg/mL.

Question: And the IC50 [25]?
Answer: Its IC50 is 0.19 µg/mL.

Question: And the IC50 [26]?
Answer: Its IC50 is 0.01 µg/mL.

Question: And the IC50 [27]?
Answer: Its IC50 is 0.02 µg/mL.

Question: And the IC50 [28]?
Answer: The IC50 was over 50 µg/mL.

Question: What about the IC50 [29] of the same substance?
Answer: Its IC50 is 0.01 µg/mL.

Question: What about the IC50 (µg/ml), pseudovirus neutralization [30] of the same substance?
Answer: Its IC50 (µg/ml), pseudovirus neutralization is over 50 µg/mL.

Question: What about the IC50 (µg/ml), pseudovirus neutralization [31] of the same substance?
Answer: Its IC50 (µg/ml), pseudovirus neutralization is 0.01 µg/mL.

Question: What about the IC50 (µg/ml), pseudovirus neutralization [32] of the same substance?
Answer: The IC50 (µg/ml), pseudovirus neutralization was 0.01 µg/mL.

Question: What about the IC50 (µg/ml), pseudovirus neutralization [33] of the same substance?
Answer: The IC50 (µg/ml), pseudovirus neutralization was 0.01 µg/mL.

Question: And the IC50 (µg/ml), pseudovirus neutralization [34]?
Answer: The IC50 (µg/ml), pseudovirus neutralization was 0.11 µg/mL.

Question: What about the IC50 (µg/ml), pseudovirus neutralization [35] of the same substance?
Answer: The IC50 (µg/ml), pseudovirus neutralization was 0.003 µg/mL.

Question: What about the IC50 (µg/ml), pseudovirus neutralization [36] of the same substance?
Answer: Its IC50 (µg/ml), pseudovirus neutralization is 0.004 µg/mL.

Question: What about the IC50 (µg/ml), pseudovirus neutralization [37] of the same substance?
Answer: The IC50 (µg/ml), pseudovirus neutralization was 0.01 µg/mL.

Question: And the IC50 (µg/ml), pseudovirus neutralization [38]?
Answer: The IC50 (µg/ml), pseudovirus neutralization was over 50 µg/mL.

Question: What about the IC50 (µg/ml), pseudovirus neutralization [39] of the same substance?
Answer: The IC50 (µg/ml), pseudovirus neutralization was over 50 µg/mL.

Question: And the IC50 (pseudovirus neutralization) [40]?
Answer: The IC50 (pseudovirus neutralization) was 0.01 µg/mL.

Question: And the IC50 (pseudovirus neutralization) [41]?
Answer: The IC50 (pseudovirus neutralization) was over 50 µg/mL.

Question: And the IC50 (pseudovirus neutralization) [42]?
Answer: The IC50 (pseudovirus neutralization) was over 50 µg/mL.

Question: What about the IC50 (pseudovirus neutralization) [43] of the same substance?
Answer: The IC50 (pseudovirus neutralization) was over 50 µg/mL.

Question: And the IC50 (µg/ml), pseudovirus neutralization [44]?
Answer: The IC50 (µg/ml), pseudovirus neutralization was 0.15 µg/mL.

Question: What about the IC50 (µg/ml), pseudovirus neutralization [45] of the same substance?
Answer: The IC50 (µg/ml), pseudovirus neutralization was over 50 µg/mL.

Question: And the IC50 (µg/ml), pseudovirus neutralization [46]?
Answer: The IC50 (µg/ml), pseudovirus neutralization was 1.21 µg/mL.

Question: And the IC50 (µg/ml), pseudovirus neutralization [47]?
Answer: Its IC50 (µg/ml), pseudovirus neutralization is 0.01 µg/mL.

Question: And the IC50 [48]?
Answer: Its IC50 is 0.02 µg/mL.

Question: What about the IC50 [49] of the same substance?
Answer: Its IC50 is 0.22 µg/mL.

Question: And the IC50 [50]?
Answer: The IC50 was 0.4 µg/mL.
